This assay addresses mNeonGreen-tagged T-bet DNA binding domain (aa 135-326) Q160A (mouse) (UniProt Q9JKD8). Kind of assay: FRET or BRET; flow-cytometric FRET in HEK293T cells co-transfected with 730 ng of each vector for mTagBFP- and mNeonGreen-tagged proteins; read 32 hours after transfection; 405 nm laser line, 530/30 bandpass filter; DFRET efficiency. (Bioluminescence resonance energy transfer reports proximity on the nanometre scale.)

Sequence of mNeonGreen-tagged T-bet DNA binding domain (aa 135-326) Q160A (mouse) (Q9JKD8 135-326, stated change not applied): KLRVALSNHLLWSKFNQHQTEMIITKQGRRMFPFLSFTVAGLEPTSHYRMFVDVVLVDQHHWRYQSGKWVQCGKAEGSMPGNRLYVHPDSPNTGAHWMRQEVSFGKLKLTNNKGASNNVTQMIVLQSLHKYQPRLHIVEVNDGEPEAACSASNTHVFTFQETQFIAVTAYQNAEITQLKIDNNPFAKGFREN
Sequence of mTagBFP-tagged GATA3 DNA binding domain (aa 259-369) (P23772 259-369): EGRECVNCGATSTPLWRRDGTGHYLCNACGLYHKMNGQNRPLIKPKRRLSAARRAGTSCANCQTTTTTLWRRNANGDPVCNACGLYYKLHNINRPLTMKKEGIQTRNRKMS

Substance “mTagBFP-tagged GATA3 DNA binding domain (aa 259-369) (from UniProt P23772 259-369) (domain or fragment)” yielded a reduction of the FRET interaction signal against WT T-bet DBD of 50%.
